Data as given in the supplement of paper PMC7125110.
± gives the standard error. Variants at the floor of the assay were thinned out.

B1: glmS ribozyme (parent)
chain: AUAAAAGCGCCAGAACUACAGAAAUGUAGUUGACGAGGAGGAGGUUUAUCGAAUUUUCGGCGGAUGCCUCCAAA

Experiments:
Details in all cases: with glucosamine-6-phosphate
[1] = variants of: B1; test: self-cleavage kobs at 160 uM GlcN6P; higher = faster cleavage; RNA array
Summary of the method: (§1)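 kobs was derived by fitting per-tile medians to one- or two-exponential decays after normalising signals to baseline and to non-cleaving reference variants. Those signals came from barcoded ribozyme variants transcribed in situ by E. coli RNA polymerase on sequenced MiSeq chips, followed through a hybridised Cy3 probe at 37 °C and imaged over ~14 h. Glucosamine-6-phosphate (40 μM to 10 mM) in HEPES/KCl/Mg(OAc)2 buffer was flowed in. Weighted Michaelis–Menten fits across concentrations then gave kcat and KM.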

[2] = variants of: B1; test: self-cleavage kobs at 640 uM GlcN6P; higher = faster cleavage; RNA array
Summary of the method: as §1

[3] = variants of: B1; test: self-cleavage kobs at 2500 uM GlcN6P; higher = faster cleavage; RNA array
Summary of the method: as §1

[4] = variants of: B1; test: self-cleavage kobs at 10000 uM GlcN6P; higher = faster cleavage; RNA array
Summary of the method: as §1

Row | Variant | self-cleavage kobs at 160 uM GlcN6P [1] | self-cleavage kobs at 640 uM GlcN6P [2] | self-cleavage kobs at 2500 uM GlcN6P [3] | self-cleavage kobs at 10000 uM GlcN6P [4]
1 | G41C G66U | < 1e-05 s⁻¹ | < 1e-05 s⁻¹ |  | 
2 | G44U C61A | < 1e-05 s⁻¹ | < 1e-05 s⁻¹ | < 1e-05 s⁻¹ | < 1e-05 s⁻¹
3 | C10A A15G C34A G44A C67A C68A | < 1e-05 s⁻¹ | < 1e-05 s⁻¹ | < 1e-05 s⁻¹ | 
4 | G43A C61G C67U C70U | < 1e-05 s⁻¹ | < 1e-05 s⁻¹ |  | 
5 | C10A C50G U65G | 0.000143 ± 2.6e-05 s⁻¹ | 0.000121 ± 4.2e-05 s⁻¹ | 4.21e-05 ± 1.9e-05 s⁻¹ | 
6 | A6G U30G C34G | < 1e-05 s⁻¹ |  |  | 
7 | G9U G38A | < 1e-05 s⁻¹ | < 1e-05 s⁻¹ |  | 
8 | A36C G66C | < 1e-05 s⁻¹ | < 1e-05 s⁻¹ |  | < 1e-05 s⁻¹
9 | G40A A42U U49C C58G A64G C70G | < 1e-05 s⁻¹ | < 1e-05 s⁻¹ | < 1e-05 s⁻¹ | 
10 | A64G G66U C70U | 0.000115 ± 2.1e-05 s⁻¹ | 0.000373 ± 9.3e-05 s⁻¹ | 0.000872 ± 0.00017 s⁻¹ | 
11 | G7U G13C A39G | < 1e-05 s⁻¹ | < 1e-05 s⁻¹ | < 1e-05 s⁻¹ | 
12 | C8A C10G C34A | < 1e-05 s⁻¹ | < 1e-05 s⁻¹ | < 1e-05 s⁻¹ | 
13 | A52G C61U C68G | 0.000141 ± 4.2e-05 s⁻¹ | 0.000189 ± 6.4e-05 s⁻¹ |  | 
14 | G7U G9C C10G A53C C61U | < 1e-05 s⁻¹ |  | < 1e-05 s⁻¹ | 
15 | A12C A36G U69C | < 1e-05 s⁻¹ |  |  | 
16 | A48C A52U | < 1e-05 s⁻¹ | < 1e-05 s⁻¹ | < 1e-05 s⁻¹ | < 1e-05 s⁻¹
17 | G7A A36G | < 1e-05 s⁻¹ | < 1e-05 s⁻¹ | < 1e-05 s⁻¹ | 
18 | C34U G41C G66U | < 1e-05 s⁻¹ | < 1e-05 s⁻¹ | < 1e-05 s⁻¹ | 
19 | C10U C50G C68U C70G | 0.000109 ± 4e-05 s⁻¹ |  |  | 
20 | G7U G40U | < 1e-05 s⁻¹ | < 1e-05 s⁻¹ | < 1e-05 s⁻¹ | < 1e-05 s⁻¹
21 | G60U A64U C68U | < 1e-05 s⁻¹ | < 1e-05 s⁻¹ | < 1e-05 s⁻¹ | 
22 | G32A G43A G63C | < 1e-05 s⁻¹ |  | < 1e-05 s⁻¹ | 
23 | G7U A36U C71A | < 1e-05 s⁻¹ |  |  | 
24 | G66U U69C | 0.000111 ± 2e-05 s⁻¹ | 0.000207 ± 6.9e-05 s⁻¹ | 0.000653 ± 0.00016 s⁻¹ | 

Row | Variant | self-cleavage kobs at 160 uM GlcN6P [1] | self-cleavage kobs at 640 uM GlcN6P [2] | self-cleavage kobs at 2500 uM GlcN6P [3] | self-cleavage kobs at 10000 uM GlcN6P [4]
25 | G43C G60C | < 1e-05 s⁻¹ | < 1e-05 s⁻¹ | < 1e-05 s⁻¹ | 
26 | A36C U46A | < 1e-05 s⁻¹ |  | < 1e-05 s⁻¹ | < 1e-05 s⁻¹
27 | C34U U47A | < 1e-05 s⁻¹ |  | < 1e-05 s⁻¹ | 
28 | A12G G35C | < 1e-05 s⁻¹ | < 1e-05 s⁻¹ |  | < 1e-05 s⁻¹
29 | C11U A15G C34U U57C C71A | < 1e-05 s⁻¹ | < 1e-05 s⁻¹ | < 1e-05 s⁻¹ | 
30 | G38A U54G C68A | 5.08e-05 ± 2e-05 s⁻¹ |  |  | 
31 | A28G U30G C67U C71U | 4.89e-05 ± 2e-05 s⁻¹ | 7.62e-05 ± 1.3e-05 s⁻¹ | 0.000204 ± 5.3e-05 s⁻¹ | 
32 | A14C A23C G43C | < 1e-05 s⁻¹ | < 1e-05 s⁻¹ | < 1e-05 s⁻¹ | 
33 | A14C A15U C70A | 0.000105 ± 3.4e-05 s⁻¹ | 0.000263 ± 5.6e-05 s⁻¹ | 0.000232 ± 8.4e-05 s⁻¹ | 
34 | G9U C10U C16U | < 1e-05 s⁻¹ |  | < 1e-05 s⁻¹ | 
35 | G9U G29C | < 1e-05 s⁻¹ | < 1e-05 s⁻¹ | < 1e-05 s⁻¹ | < 1e-05 s⁻¹
36 | C61U U65G | < 1e-05 s⁻¹ | < 1e-05 s⁻¹ |  | 
37 | G9U C16G G32U G38A A42G | < 1e-05 s⁻¹ |  |  | 
38 | C8A C16U G29U G62A | < 1e-05 s⁻¹ | < 1e-05 s⁻¹ |  | 
39 | U30A G38U U65G C68G | 0.000204 ± 4.9e-05 s⁻¹ | 0.000139 ± 4.3e-05 s⁻¹ | 0.000149 ± 4.5e-05 s⁻¹ | 7.88e-05 ± 1.5e-05 s⁻¹
40 | G7C A24U U46A C68U | < 1e-05 s⁻¹ | < 1e-05 s⁻¹ |  | < 1e-05 s⁻¹
41 | A36G A64G C71U | < 1e-05 s⁻¹ | < 1e-05 s⁻¹ |  | 
42 | A42U U55A G60A C71G | < 1e-05 s⁻¹ | < 1e-05 s⁻¹ | < 1e-05 s⁻¹ | 
43 | C8U C50G G63U | 0.000108 ± 2.8e-05 s⁻¹ |  | 5.35e-05 ± 2.6e-05 s⁻¹ | 
44 | A14U G43U U46A | < 1e-05 s⁻¹ | < 1e-05 s⁻¹ | < 1e-05 s⁻¹ | 
45 | G35C U55A | < 1e-05 s⁻¹ | < 1e-05 s⁻¹ | < 1e-05 s⁻¹ | 
46 | A28G C70A | 0.000126 ± 3.7e-05 s⁻¹ | 6.33e-05 ± 2.1e-05 s⁻¹ | 0.000497 ± 0.00012 s⁻¹ | 
47 | G29C G43C C70G | < 1e-05 s⁻¹ | < 1e-05 s⁻¹ |  | 
48 | G29A A39U G40A | 7.25e-05 ± 2.4e-05 s⁻¹ | 0.000163 ± 5.7e-05 s⁻¹ | 0.000397 ± 0.0001 s⁻¹ | 
